The record followed here is patent US20140288007A1.

One data set has as its target papain (UniProt P00784). Put plainly: cell-based or functional assay.
The next data set deals with caspase 3. Put plainly: cell-based or functional assay.
The target in data set [1] is RgpB (mature Arg-gingipain purified from P. gingivalis HG66) (Porphyromonas gingivalis) (UniProt P95493). Put plainly: cell-based or functional assay.
Data set [2] addresses Kgp on P. gingivalis W50 whole cells (Lys-specific activity, GPKNa substrate) (Porphyromonas gingivalis) (UniProt Q51817). The data set can be described thus: cell-based or functional assay.
In data set [3] the target is Whole cell W50 (proteolytic activity on BapNa substrate). The data set can be described thus: cell-based or functional assay.
In data set [4] the target is RgpB (mature Arg-gingipain purified from P. gingivalis HG66) (Porphyromonas gingivalis) (UniProt P95493). The data set can be described thus: enzyme inhibition kinetics (non-competitive, Ki′), chromogenic substrate BapNA, secondary plot of Vmax observed against inhibitor concentration.
Data set [5] concerns the target T1, recombinant RgpB propeptide, P95493.
T1 chain: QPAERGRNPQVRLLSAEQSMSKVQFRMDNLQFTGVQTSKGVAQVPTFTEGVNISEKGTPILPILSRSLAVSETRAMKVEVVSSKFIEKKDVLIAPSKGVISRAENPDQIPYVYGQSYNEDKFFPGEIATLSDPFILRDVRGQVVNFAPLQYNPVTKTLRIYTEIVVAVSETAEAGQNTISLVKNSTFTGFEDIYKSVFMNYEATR

Sequence of UniProt P00784 (P00784 134-345 limits assumed): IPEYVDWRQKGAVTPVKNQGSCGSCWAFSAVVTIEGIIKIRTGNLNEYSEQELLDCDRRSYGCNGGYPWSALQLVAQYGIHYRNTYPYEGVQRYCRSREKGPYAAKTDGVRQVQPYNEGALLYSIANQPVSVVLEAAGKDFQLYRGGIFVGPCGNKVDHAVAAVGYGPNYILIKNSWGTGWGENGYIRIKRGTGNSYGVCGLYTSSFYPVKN

Regarding “recombinant Kgp propeptide (from UniProt Q51817 25-1732)”, in the data set with papain, the % Proteolytic Activity (BapNa; inhibitor 40 mg/L) was 88%. Also, in the data set with caspase 3, the % Proteolytic Activity (Ac-DEVD-pNa 200 uM; inhibitor 100 mg/L) turned out to be 121%. The % Proteolytic Activity (BapNa; inhibitor 50 mg/L) in data set [1] stood at 105%. Also, in data set [2], the % Proteolytic Activity (whole cells, GPKNa; inhibitor 40 mg/L) is 65% and the % Proteolytic Activity (whole cells, GPKNa; inhibitor 80 mg/L) is 40%.
What is called Ki is the dissociation constant of the complex between target and ligand, obtained from inhibition or displacement. Read a high Ki as weaker binding. In the data set with papain, “recombinant RgpB propeptide (from UniProt P95493 25-229)” displayed a % Proteolytic Activity (BapNa; inhibitor 40 mg/L) of 68%. For the same molecule, in the data set with caspase 3, the % Proteolytic Activity (Ac-DEVD-pNa 200 uM; inhibitor 100 mg/L) is 129%. Moreover, in data set [3], the % Proteolytic Activity (whole cells, BapNa; inhibitor 40 mg/L) turned out to be 68% and the % Proteolytic Activity (whole cells, BapNa; inhibitor 80 mg/L) came out at 59%. The inhibition of RgpB activity, DQ BSA, 2 h incubation in data set [1] is 50%. This molecule also displayed an inhibition constant Ki in data set [4] of 11.8 nM.

B1: RgpB (mature Arg-gingipain purified from P. gingivalis HG66) (protein)
chain: YTPVEEKENGRMIVIVPKKYEEDIEDFVDWKNQRGLRTEVKVAEDIASPVTANAIQQFVKQEYEKEGNDLTYVLLVGDHKDIPAKITPGIKSDQVYGQIVGNDHYNEVFIGRFSCESKEDLKTQIDRTIHYERNITTEDKWLGQALCIASAEGGPSADNGESDIQHENIIANLLTQYGYTKIIKCYDPGVTPKNIIDAFNGGISLANYTGHGSETAWGTSHFGTTHVKQLTNSNQLPFIFDVACVNGDFLYNVPCFAEALMRAQKDGKPTGTVAIIASTINQSWASPMRGQDEMNEILCEKHPNNIKRTFGGVTMNGMFAMVEKYKKDGEKMLDTWTVFGDPSLLVRTLVPTKMQVTAPANISASAQTFEVACDYNGAIATLSDDGDMVGTAIVKDGKAIIKLNESIADETNLTLTVVGYNKVTVIKDVKVEGTSIADVANDKPYTVAVSGKTITVESPAAGLTIFDMNGRRVATAKNRMVFEAQNGVYAVRIATEGKTYTEKVIVK
B1: the “RgpB proteolytic activity, DQ-BSA fluorescent substrate, 11 h time course” value in data set [5] is recorded as “Addition of 10 mg/L (0.44 µM) or 20 mg/L (0.88 µM) RgpB propeptide resulted in near total inhibition of RgpB proteolytic activity”.
